Test results as given in the supplement of paper PMC10567573.
± gives the standard deviation.

Assay: protein stability index of a GFP-peptide fusion (GPS, HEK-293T) (PSI 1-6); higher = more stable
[1] = treatment: DMSO, c terminus: a fixed tail appended
[2] = treatment: MLN4924 1 uM, 8 h, c terminus: a fixed tail appended
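Also: 24-mer peptide tiles fused after GFP, lentivirally expressed, FACS-sorted into six equal bins by GFP/DsRed ratio, decoded by Illumina sequencing, PSI is the read-weighted mean bin number.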

LQCDAVNLAFGRRCEELEDARYKL [TEKT4]
protein stability index [1]: 3.74 ± 0.26
protein stability index [2]: 3.64 ± 0.31

LQQIQGLIGGLEAQLSELRCEMEA [KRT15]
protein stability index [1]: 3.52 ± 0.43
protein stability index [2]: 3.67 ± 0.41

LQSELAGVADFSATYLRCQLLLIK [INTS4]
protein stability index [1]: 2.79 ± 0.46
protein stability index [2]: 2.57 ± 0.11

LQTDHYAALLGSNSESWGWDIGRG [SPSB2]
protein stability index [1]: 3 ± 0.032
protein stability index [2]: 3.02 ± 0.13

LQWKSSHFERRDNMNDNFLEGEEE [CHGB]
protein stability index [1]: 5.36 ± 0.44
protein stability index [2]: 5.49 ± 0.23

LRAPTISDLLNDQDLLDVIRIKLD [EDARADD]
protein stability index [1]: 2.11 ± 0.61
protein stability index [2]: 2.06 ± 0.29

LRLLREEEYVAPPRGPLPTLQVVP [TRAF3IP2]
protein stability index [1]: 2.96 ± 0.3
protein stability index [2]: 3.23 ± 0.14

LRMLEYEPAARISPLGALQHGFFR [DYRK1B]
protein stability index [1]: 2.51 ± 0.2
protein stability index [2]: 2.61 ± 0.33

LRRHAGLLDGLARRVGILGEELAD [SCARA5]
protein stability index [1]: 3.37 ± 0.17
protein stability index [2]: 3.34 ± 0.18

LRWERAWFPPAIMGVVSLVFLIIY [ARL6IP1]
protein stability index [1]: 3.17 ± 0.1
protein stability index [2]: 3.08 ± 0.31

LSASKDRTMRLWNIEEIDEIPLVI [WDR88]
protein stability index [1]: 2.19 ± 0.21
protein stability index [2]: 2.39 ± 0.14

LSELYEESSDLQMDVMPGEGDLPQ [EID1]
protein stability index [1]: 5.42 ± 0.47
protein stability index [2]: 5.12 ± 0.47

LSGTRESLAQGPDAATTDELSSLG [TBC1D10A]
protein stability index [1]: 5.23 ± 0.34
protein stability index [2]: 4.9 ± 0.24

LSHAGQKATAAFSNVGTAISKKFG [TPD52L1]
protein stability index [1]: 3.73 ± 0.23
protein stability index [2]: 3.66 ± 0.21

LSLDNSPLLQSIHQLDFVQVKASS [TRIM9]
protein stability index [1]: 2.73 ± 0.17
protein stability index [2]: 2.98 ± 0.42

LSQVELQAAPGALPVSSPEPPPAL [TRIM55]
protein stability index [1]: 4.79 ± 0.14
protein stability index [2]: 4.69 ± 0.21

LTAHLLPPRQALGSLCSPWAAPRV [YPEL3]
protein stability index [1]: 2.56 ± 0.36
protein stability index [2]: 2.45 ± 0.36

LTEQYTVTGLMEATQMMVDIDGDV [RHOBTB2]
protein stability index [1]: 4.66 ± 0.33
protein stability index [2]: 4.63 ± 0.29

LTMNSEDERRDAEERASLAGNRNS [KCNK9]
protein stability index [1]: 5.56 ± 0.082
protein stability index [2]: 5.5 ± 0.22

LTPADKAEHMKRQRHPRLRPQSAQ [AUP1]
protein stability index [1]: 4.36 ± 0.16
protein stability index [2]: 4.57 ± 0.28

LTRIRKWIEHSKLREINFKIVEFN [GLT8D2]
protein stability index [1]: 2.48 ± 0.44
protein stability index [2]: 2.51 ± 0.39

LTRLRTASGHEPGGSAVCASRVKL [PLEKHN1]
protein stability index [1]: 3.63 ± 0.17
protein stability index [2]: 3.61 ± 0.28

LVAHQRYHTGKTPFVCPECGQPCS [ZNF649]
protein stability index [1]: 3.62 ± 0.45
protein stability index [2]: 4.03 ± 0.51

LVATNAHLDHYYQEELPALLKALV [FCHSD1]
protein stability index [1]: 2.24 ± 0.23
protein stability index [2]: 2.19 ± 0.36

LVGDSDVGKGEILESLQDGAAESP [RAB40C]
protein stability index [1]: 5.35 ± 0.27
protein stability index [2]: 5.39 ± 0.3

LVQKDQHSFELDEKALASILLQDH [ATL3]
protein stability index [1]: 3.43 ± 0.35
protein stability index [2]: 3.38 ± 0.28

MAAAVAAAPGALGSLHAGGARLVA [AUH]
protein stability index [1]: 2.8 ± 0.58
protein stability index [2]: 3.12 ± 0.39

MAAWGKKHAGKDPVRDECEERNRF [FAM9B]
protein stability index [1]: 4.59 ± 0.23
protein stability index [2]: 4.62 ± 0.34

MALPGARARGWAAAARAAQRRRRV [RSAD1]
protein stability index [1]: 4.64 ± 0.15
protein stability index [2]: 4.61 ± 0.17

MASCAEPSEPSAPLPAGVPPLEDF [FKBP8]
protein stability index [1]: 4.97 ± 0.28
protein stability index [2]: 5.05 ± 0.14

MAVALGCAIQASLNQGSVFQEYDT [ZNF449]
protein stability index [1]: 3.91 ± 0.54
protein stability index [2]: 2.88 ± 1.2

MAVDKDTTNVGRYPVGRFPSLHVV [FEM1A]
protein stability index [1]: 2.67 ± 0.3
protein stability index [2]: 2.72 ± 0.34

MDEKVFTKELDQWIEQLNECKQLS [PPP2CA]
protein stability index [1]: 4.15 ± 0.17
protein stability index [2]: 4.15 ± 0.16

MDIKNSPSSLNSPSSYNCSQSILP [ESR2]
protein stability index [1]: 3.8 ± 0.19
protein stability index [2]: 3.93 ± 0.29

MERRRLRGSIQSRYISMSVWTSPR [PRAME]
protein stability index [1]: 2.64 ± 0.28
protein stability index [2]: 2.73 ± 0.38

MESRKDITNQEELWKMKPRRNLEE [STEAP1]
protein stability index [1]: 4.91 ± 0.37
protein stability index [2]: 4.92 ± 0.34

MGKRDTADIISTVEFNHTGELLAT [PPP2R2C]
protein stability index [1]: 3.62 ± 0.21
protein stability index [2]: 3.89 ± 0.31

MGTRRKHLGCAVYQDMIYAVGGRD [KLHL20]
protein stability index [1]: 2.33 ± 0.27
protein stability index [2]: 2.29 ± 0.56

MHDMLLEELAPVGTAHIPPTMHLE [ZNF449]
protein stability index [1]: 3.71 ± 0.32
protein stability index [2]: 3.64 ± 0.12

MHPKETTRQLSLAVKDGLIVETLT [ZMYND11]
protein stability index [1]: 3.27 ± 0.28
protein stability index [2]: 3.36 ± 0.24

MKALLGSYAHSVEDTHVQIGQVHE [FCHO1]
protein stability index [1]: 3.62 ± 0.091
protein stability index [2]: 3.6 ± 0.25

MKNLLFSEMWDIFLVRLLMAMAVM [MFSD9]
protein stability index [1]: 3.14 ± 0.48
protein stability index [2]: 3.22 ± 0.77

MLQKPKSVKLRALRSPRKFGVAGR [DFFB]
protein stability index [1]: 2.94 ± 0.27
protein stability index [2]: 3.26 ± 0.35

MLRWLIGGGREPQGLAEKSPLQTI [WDR41]
protein stability index [1]: 2.33 ± 0.21
protein stability index [2]: 2.33 ± 0.23

MNRAFSRKKDKTWMHTPEALSKHF [GULP1]
protein stability index [1]: 2.69 ± 0.21
protein stability index [2]: 2.85 ± 0.14

MPYNFCLPSLSCRTSCSSRPCVPP [KRT33B]
protein stability index [1]: 2.34 ± 0.41
protein stability index [2]: 2.18 ± 0.45

MQDYVRTGTYQRAILQNHTDFKDK [CARM1]
protein stability index [1]: 3.92 ± 0.32
protein stability index [2]: 4.18 ± 0.29

MQIEFIKQGSMNFRFIPVLFPNAK [TRAF3IP2]
protein stability index [1]: 2.96 ± 0.71
protein stability index [2]: 2.45 ± 0.58

MQSLDDATKQLDFTRKTLAEKKQE [SASS6]
protein stability index [1]: 5.12 ± 0.24
protein stability index [2]: 5.19 ± 0.27

MRKSGAMKKGGIFSAEFLKVFIPS [BNIP3L]
protein stability index [1]: 2.38 ± 0.3
protein stability index [2]: 2.26 ± 0.21

MSIVIPLGVDTAETSYLEMAAGSE [KMT2E]
protein stability index [1]: 2.76 ± 0.51
protein stability index [2]: 2.74 ± 0.39

MSLLHLGALYGITLIPTCKFYTWL [SCD]
protein stability index [1]: 3.01 ± 0.57
protein stability index [2]: 3.74 ± 0.94

MSSENCFVAENSSLHPESGQENDA [CD69]
protein stability index [1]: 5.71 ± 0.19
protein stability index [2]: 5.54 ± 0.096

MSSPSSPFREQSFLCAAGDAGEES [TIAF1]
protein stability index [1]: 5.34 ± 0.18
protein stability index [2]: 5.32 ± 0.17

MSSRKVLAIQARKRRPKREKHPKK [SRPK2]
protein stability index [1]: 4.41 ± 0.28
protein stability index [2]: 4.46 ± 0.52

MTMTTMPESLNSPVSGKAVFMEFG [DLX1]
protein stability index [1]: 2.42 ± 0.16
protein stability index [2]: 2.57 ± 0.21

MVHKRSHTGERPFQCNQCGASFTQ [IKZF1]
protein stability index [1]: 2.86 ± 0.25
protein stability index [2]: 2.97 ± 0.43

NAVRQNGQLVRNDSLWHRSDSAPR [MFF]
protein stability index [1]: 4.01 ± 0.25
protein stability index [2]: 4.07 ± 0.21

NCVSSVYLYYDPDYSFLSLGVYSA [ATE1]
protein stability index [1]: 3.23 ± 0.41
protein stability index [2]: 3.27 ± 0.11

NDTYRTDLCLLYPPFMIALACLHV [CCNC]
protein stability index [1]: 3.07 ± 0.38
protein stability index [2]: 2.97 ± 0.23

NDVRQSANYTCVAMSTLGVIEAIA [PTPRD]
protein stability index [1]: 2.3 ± 0.34
protein stability index [2]: 2.19 ± 0.3

NEDGPSSENLEEETENIIAANHWV [TRIP13]
protein stability index [1]: 5.08 ± 0.31
protein stability index [2]: 5.42 ± 0.23

NEPSINFYKRRGASDLSSEEGWRL [SAT1]
protein stability index [1]: 3.69 ± 0.4
protein stability index [2]: 3.84 ± 0.17

NETRRKHETRLVEVDSGRQIEYEY [LMNB1]
protein stability index [1]: 4.54 ± 0.14
protein stability index [2]: 4.57 ± 0.23

NGINGELTSADRETAEEVSARIVQ [MAP2]
protein stability index [1]: 5.23 ± 0.22
protein stability index [2]: 5.35 ± 0.18

NGLTPKKKIQVNSKPSIQPKPLLL [ATF6]
protein stability index [1]: 3.48 ± 0.17
protein stability index [2]: 3.32 ± 0.25

NHLDPFGHIILNSMHKYQPRLHIV [TBX5]
protein stability index [1]: 2.31 ± 0.23
protein stability index [2]: 2.08 ± 0.52

NIDETCGRHHSQSTEVQAHPYSTT [TEKT4]
protein stability index [1]: 4.62 ± 0.091
protein stability index [2]: 4.54 ± 0.07

NIIAIAATNNLYIFQDKVNSDMH [PPP2R2C]
protein stability index (treatment: DMSO, c terminus: native): 2.36 ± 0.49
protein stability index (treatment: MLN4924 1 uM, 8 h, c terminus: native): 2.09 ± 0.2

NKKHGEAEKKKPKTQIVCKHFLEA [ZC3H15]
protein stability index [1]: 4.09 ± 0.32
protein stability index [2]: 4.14 ± 0.31

NLAAAAADIPQDQLVVMHPTPQVD [BTBD10]
protein stability index [1]: 5.14 ± 0.21
protein stability index [2]: 5.13 ± 0.21

NLDKMADNLLAAADKYALERLKVM [SPOPL]
protein stability index [1]: 3.1 ± 0.44
protein stability index [2]: 3.04 ± 0.42

NLGDALDSSNSMQTIQKTTTRRIV [KRT18]
protein stability index [1]: 4.38 ± 0.19
protein stability index [2]: 4.51 ± 0.28

NMSLTALREKLLEAEQSLRNLEDI [TEKT4]
protein stability index [1]: 3.29 ± 0.47
protein stability index [2]: 3.43 ± 0.46

NNEEQRSGLIYLTNHIAPHARNGL [IKZF1]
protein stability index [1]: 3.34 ± 0.33
protein stability index [2]: 3.52 ± 0.2

NNGIFQINSRRWCSNLTPNVPNVC [SPACA3]
protein stability index [1]: 2.6 ± 0.28
protein stability index [2]: 2.63 ± 0.25

NQAGYFMLPTVITDIKDESCCMTE [ALDH8A1]
protein stability index [1]: 3.5 ± 0.13
protein stability index [2]: 3.71 ± 0.43

NQVSSNSWGIAGETELALVKESGE [DLC1]
protein stability index [1]: 5.17 ± 0.41
protein stability index [2]: 5.23 ± 0.2

NRNQGLNRLMLAVRDMMANFHLND [TCF25]
protein stability index [1]: 2.1 ± 0.16
protein stability index [2]: 2.24 ± 0.37

NRRDVEAWFFSKTEELNKEVASNT [KRT15]
protein stability index [1]: 4.05 ± 0.26
protein stability index [2]: 4.12 ± 0.23

NRVVVSGLPPSGSWQDLKDHMREA [SRSF1]
protein stability index [1]: 3.93 ± 0.094
protein stability index [2]: 4.03 ± 0.12

NSGHTIFNDPFFIVETVCIVWFSF [KCNA4]
protein stability index [1]: 3.49 ± 0.58
protein stability index [2]: 3.51 ± 0.31

NSKPCISLNGPLSTSRHVMAPVMA [ADAMTS4]
protein stability index [1]: 2.83 ± 0.39
protein stability index [2]: 3.12 ± 0.19

NSRRNINYRSFEPILRLLPQGISP [ZER1]
protein stability index [1]: 2.3 ± 0.2
protein stability index [2]: 2.54 ± 0.17

NSSEELSSALHLSKGMSIFLDILR [NECAB1]
protein stability index [1]: 2.38 ± 0.13
protein stability index [2]: 2.54 ± 0.21

NTGKTYFFVANKYWRYDEYKRSMD [MMP1]
protein stability index [1]: 1.98 ± 0.17
protein stability index [2]: 2.2 ± 0.19

NTKAEMEMSLAEELNHGRQGENQE [FATE1]
protein stability index [1]: 5.53 ± 0.16
protein stability index [2]: 5.64 ± 0.12

NTNTLKVPECRLAEDLGNLWENTR [SPOPL]
protein stability index [1]: 3.22 ± 0.26
protein stability index [2]: 3.41 ± 0.34

NVPLSISRLTPGGKAAQAGVAVGD [PDLIM7]
protein stability index [1]: 4.05 ± 0.23
protein stability index [2]: 4.18 ± 0.13
